The results in this text go back to publication PMC9563052.

This test has as its target fibrinogen γ-chain C-terminal residues 390-411 fused to GST. The experiment in a line: ELISA; ligand (γC390-411 or γC151-411) coated, soluble αIIbβ3 (1 µg/mL) pre-incubated with chemokine (CCL5, CXCL12 or CX3CL1) for 10 min, then 1 h at room temperature in HEPES-Tyrodes buffer with 1 mM CaCl2. On the technique in general: An ELISA detects its analyte on a solid surface through an enzyme-linked reagent.

For “soluble recombinant integrin αIIbβ3 (from UniProt P08514 32-1039; P05106 27-718) (complex)”, the fold binding to γC390-411 with CCL5 (50 µg/mL, 1 mM Ca2+) over 1 mM Mn2+ alone was 4.5 fold and the fold binding to γC390-411 with CXCL12 (50 µg/mL, 1 mM Ca2+) over 1 mM Mn2+ alone was determined as 3.5 fold.
